# Measurements published in article PMC4742998.
# Target: complement component 9 (C9) (human)
# Test: cryo-EM structure; monomeric C9 polymerised in solution by overnight incubation at 1 mg/ml and 37 °C; single-particle cryo-EM of soluble poly-C9, 22-fold symmetry applied during refinement, about 5,000 particles, 8 Å
substance,measurement,value
complement component 9 (C9) (natural protein),stoichiometry N,22
